Experimental data reported in paper PMC9482650, “Quantitative fragmentomics allow affinity mapping of interactomes” (Nature Communications, 2022).

T1: LIN7C, Q9NUP9
T1 sequence (Q9NUP9 88-185, limits assumed, looked up): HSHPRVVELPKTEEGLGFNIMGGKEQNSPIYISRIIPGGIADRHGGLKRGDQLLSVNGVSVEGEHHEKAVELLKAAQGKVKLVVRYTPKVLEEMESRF

T2: ARHGEF11, O15085
T2 sequence (O15085 42-136, limits assumed, looked up): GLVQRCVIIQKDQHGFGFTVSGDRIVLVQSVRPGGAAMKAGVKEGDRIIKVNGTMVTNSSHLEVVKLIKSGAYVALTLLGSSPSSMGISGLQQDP

T3: SHANK1, Q9Y566
T3 sequence (Q9Y566 658-767, limits assumed, looked up): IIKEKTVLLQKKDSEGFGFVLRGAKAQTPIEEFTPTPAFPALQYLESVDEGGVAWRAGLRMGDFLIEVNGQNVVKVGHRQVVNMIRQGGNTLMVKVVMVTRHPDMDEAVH

T4: TJP3_3, O95049
T4 sequence (O95049 375-456, limits assumed, looked up): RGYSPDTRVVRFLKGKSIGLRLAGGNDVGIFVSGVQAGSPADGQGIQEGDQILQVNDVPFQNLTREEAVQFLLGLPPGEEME

T5: LRRC7, Q96NW7
T5 sequence (Q96NW7 1440-1537, limits assumed, looked up): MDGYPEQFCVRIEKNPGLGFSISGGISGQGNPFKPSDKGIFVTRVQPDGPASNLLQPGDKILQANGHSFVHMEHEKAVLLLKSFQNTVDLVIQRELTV

T6: APBA1_2, Q02410
T6 sequence (Q02410 742-832, limits assumed, looked up): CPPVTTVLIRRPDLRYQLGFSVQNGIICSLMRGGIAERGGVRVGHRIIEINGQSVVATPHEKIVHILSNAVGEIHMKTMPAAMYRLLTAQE

T7: ARHGAP21, Q5T5U3
T7 sequence (Q5T5U3 45-169, limits assumed, looked up): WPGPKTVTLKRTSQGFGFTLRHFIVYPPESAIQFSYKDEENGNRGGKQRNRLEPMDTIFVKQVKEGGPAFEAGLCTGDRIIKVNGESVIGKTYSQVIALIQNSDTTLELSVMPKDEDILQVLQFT

T8: RAPGEF6, Q8TEU7
T8 sequence (Q8TEU7 525-625, limits assumed, looked up): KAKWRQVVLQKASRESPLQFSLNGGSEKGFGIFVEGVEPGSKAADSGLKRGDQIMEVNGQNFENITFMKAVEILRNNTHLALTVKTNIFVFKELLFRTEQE

T9: LNX2_3, Q8N448
T9 sequence (Q8N448 463-564, limits assumed, looked up): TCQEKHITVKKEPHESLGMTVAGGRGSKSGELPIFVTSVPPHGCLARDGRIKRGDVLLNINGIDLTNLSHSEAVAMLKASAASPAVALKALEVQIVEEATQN

T10: APBA1_1, Q02410
T10 sequence (Q02410 651-752, limits assumed, looked up): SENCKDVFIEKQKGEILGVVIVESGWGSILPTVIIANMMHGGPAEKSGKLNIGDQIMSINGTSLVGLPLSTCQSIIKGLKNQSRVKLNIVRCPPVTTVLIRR

B1: KCNA6, P17658 (peptide)
chain: YAEKRMLTEV
B2: SLCO1B1, Q9Y6L6 (peptide)
chain: SAGADSETHC
B3: LPAR1, Q92633 (peptide)
chain: GVHSNDHSVV

What follows are binders tested against Inadl_4, Q8NI35 (assay: holdup assay). Settings: plain residues with an end cap or a label only (N-terminal biotin on a linker: ado-ado).
Sequence of Inadl_4, Q8NI35 (Q8NI35 547-651): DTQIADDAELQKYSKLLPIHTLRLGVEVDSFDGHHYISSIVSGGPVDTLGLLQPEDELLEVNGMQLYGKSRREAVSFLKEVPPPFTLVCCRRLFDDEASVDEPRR
Parameters: key: below the threshold = too weak to quantify, mostly under pKd 3.1 to 4

Row | Binder | pKd
1 | B1 | below the threshold
2 | B2 | below the threshold
3 | B3 | below the threshold

What follows are binders tested against NHERF4_2, Q86UT5 (assay: holdup assay). Settings: plain residues with an end cap or a label only (N-terminal biotin on a linker: ado-ado).
Sequence of NHERF4_2, Q86UT5 (Q86UT5 220-308): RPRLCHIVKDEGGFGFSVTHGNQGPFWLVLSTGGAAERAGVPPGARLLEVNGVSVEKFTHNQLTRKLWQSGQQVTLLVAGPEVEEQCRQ
Parameters: key: below the threshold = too weak to quantify, mostly under pKd 3.1 to 4

Row | Binder | pKd
4 | B1 | below the threshold
5 | B2 | below the threshold
6 | B3 | below the threshold

The binders below were run against T1, LIN7C, Q9NUP9 (assay: holdup assay). Settings: plain residues with an end cap or a label only (N-terminal biotin on a linker: ado-ado).
Parameters: key: below the threshold = too weak to quantify, mostly under pKd 3.1 to 4

Row | Binder | pKd
7 | B1 | 3.52
8 | B2 | 3.93
9 | B3 | below the threshold

Each binder was assayed against MAGI3_2, Q5TCQ9 (assay: holdup assay). Settings: plain residues with an end cap or a label only (N-terminal biotin on a linker: ado-ado).
Sequence of MAGI3_2, Q5TCQ9 (Q5TCQ9 398-503): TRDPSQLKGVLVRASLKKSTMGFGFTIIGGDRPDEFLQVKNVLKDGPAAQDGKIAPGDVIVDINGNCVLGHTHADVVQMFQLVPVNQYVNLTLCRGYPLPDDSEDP
Parameters: key: below the threshold = too weak to quantify, mostly under pKd 3.1 to 4

Row | Binder | pKd
10 | B1 | 4.62
11 | B2 | below the threshold
12 | B3 | below the threshold

The binders below were run against T2, ARHGEF11, O15085 (assay: holdup assay). Settings: plain residues with an end cap or a label only (N-terminal biotin on a linker: ado-ado).
Parameters: key: below the threshold = too weak to quantify, mostly under pKd 3.1 to 4

Row | Binder | pKd
13 | B1 | 5.03
14 | B2 | below the threshold
15 | B3 | 3.58

Each binder was assayed against MAGI2_3, Q86UL8 (assay: holdup assay). Settings: plain residues with an end cap or a label only (N-terminal biotin on a linker: ado-ado).
Sequence of MAGI2_3, Q86UL8 (Q86UL8 600-682): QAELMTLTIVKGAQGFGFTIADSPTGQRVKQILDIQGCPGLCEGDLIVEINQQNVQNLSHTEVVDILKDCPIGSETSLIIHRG
Parameters: key: below the threshold = too weak to quantify, mostly under pKd 3.1 to 4

Row | Binder | pKd
16 | B1 | below the threshold
17 | B2 | below the threshold
18 | B3 | below the threshold

These binders were tested against PTPN3, P26045 (assay: holdup assay). Settings: plain residues with an end cap or a label only (N-terminal biotin on a linker: ado-ado).
Sequence of PTPN3, P26045 (P26045 505-587): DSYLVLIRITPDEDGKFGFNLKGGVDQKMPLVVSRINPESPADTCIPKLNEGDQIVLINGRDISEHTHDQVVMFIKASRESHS
Parameters: key: below the threshold = too weak to quantify, mostly under pKd 3.1 to 4

Row | Binder | pKd
19 | B1 | 4.32
20 | B2 | 4.01
21 | B3 | below the threshold

The binders below were run against Inadl_8, Q8NI35 (assay: holdup assay). Settings: plain residues with an end cap or a label only (N-terminal biotin on a linker: ado-ado).
Sequence of Inadl_8, Q8NI35 (Q8NI35 1425-1530): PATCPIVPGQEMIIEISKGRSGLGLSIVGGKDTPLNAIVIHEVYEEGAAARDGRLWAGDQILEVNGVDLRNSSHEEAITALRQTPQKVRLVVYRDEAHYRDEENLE
Parameters: key: below the threshold = too weak to quantify, mostly under pKd 3.1 to 4

Row | Binder | pKd
22 | B1 | below the threshold
23 | B2 | below the threshold
24 | B3 | 3.62

These binders were tested against SCRIB_2, Q14160 (assay: holdup assay). Settings: plain residues with an end cap or a label only (N-terminal biotin on a linker: ado-ado).
Sequence of SCRIB_2, Q14160 (Q14160 857-960): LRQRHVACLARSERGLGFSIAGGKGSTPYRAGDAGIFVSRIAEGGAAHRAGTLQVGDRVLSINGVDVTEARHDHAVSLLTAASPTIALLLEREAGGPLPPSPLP
Parameters: key: below the threshold = too weak to quantify, mostly under pKd 3.1 to 4

Row | Binder | pKd
25 | B1 | below the threshold
26 | B2 | below the threshold
27 | B3 | below the threshold

Each binder was assayed against FRMPD2_1, Q68DX3 (assay: holdup assay). Settings: plain residues with an end cap or a label only (N-terminal biotin on a linker: ado-ado).
Sequence of FRMPD2_1, Q68DX3 (Q68DX3 770-861): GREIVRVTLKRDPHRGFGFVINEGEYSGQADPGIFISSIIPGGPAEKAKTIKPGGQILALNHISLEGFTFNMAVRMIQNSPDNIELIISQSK
Parameters: key: below the threshold = too weak to quantify, mostly under pKd 3.1 to 4

Row | Binder | pKd
28 | B1 | below the threshold
29 | B2 | below the threshold
30 | B3 | below the threshold

What follows are binders tested against T3, SHANK1, Q9Y566 (assay: holdup assay). Settings: plain residues with an end cap or a label only (N-terminal biotin on a linker: ado-ado).
Parameters: key: below the threshold = too weak to quantify, mostly under pKd 3.1 to 4

Row | Binder | pKd
31 | B1 | below the threshold
32 | B2 | below the threshold
33 | B3 | below the threshold

These binders were tested against T4, TJP3_3, O95049 (assay: holdup assay). Settings: plain residues with an end cap or a label only (N-terminal biotin on a linker: ado-ado).
Parameters: key: below the threshold = too weak to quantify, mostly under pKd 3.1 to 4

Row | Binder | pKd
34 | B1 | below the threshold
35 | B2 | below the threshold
36 | B3 | below the threshold

These binders were tested against T5, LRRC7, Q96NW7 (assay: holdup assay). Settings: plain residues with an end cap or a label only (N-terminal biotin on a linker: ado-ado).
Parameters: key: below the threshold = too weak to quantify, mostly under pKd 3.1 to 4

Row | Binder | pKd
37 | B1 | below the threshold
38 | B2 | below the threshold
39 | B3 | below the threshold

The binders below were run against PARD3_3, Q8TEW0 (assay: holdup assay). Settings: plain residues with an end cap or a label only (N-terminal biotin on a linker: ado-ado).
Sequence of PARD3_3, Q8TEW0 (Q8TEW0 582-685): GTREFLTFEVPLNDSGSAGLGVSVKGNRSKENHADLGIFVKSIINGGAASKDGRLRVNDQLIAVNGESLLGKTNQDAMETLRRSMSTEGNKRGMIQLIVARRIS
Parameters: key: below the threshold = too weak to quantify, mostly under pKd 3.1 to 4

Row | Binder | pKd
40 | B1 | below the threshold
41 | B2 | below the threshold
42 | B3 | below the threshold

What follows are binders tested against T6, APBA1_2, Q02410 (assay: holdup assay). Settings: plain residues with an end cap or a label only (N-terminal biotin on a linker: ado-ado).
Parameters: key: below the threshold = too weak to quantify, mostly under pKd 3.1 to 4

Row | Binder | pKd
43 | B1 | 3.72
44 | B2 | below the threshold
45 | B3 | 3.63

The binders below were run against T7, ARHGAP21, Q5T5U3 (assay: holdup assay). Settings: plain residues with an end cap or a label only (N-terminal biotin on a linker: ado-ado).
Parameters: key: below the threshold = too weak to quantify, mostly under pKd 3.1 to 4

Row | Binder | pKd
46 | B1 | below the threshold
47 | B2 | 4.02
48 | B3 | below the threshold

These binders were tested against GRID2IP_1, A4D2P6 (assay: holdup assay). Settings: plain residues with an end cap or a label only (N-terminal biotin on a linker: ado-ado).
Sequence of GRID2IP_1, A4D2P6 (A4D2P6 1-87): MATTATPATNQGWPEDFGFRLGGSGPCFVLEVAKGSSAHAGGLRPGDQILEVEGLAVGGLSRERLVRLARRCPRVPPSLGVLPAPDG
Parameters: key: below the threshold = too weak to quantify, mostly under pKd 3.1 to 4

Row | Binder | pKd
49 | B1 | below the threshold
50 | B2 | below the threshold
51 | B3 | below the threshold

Each binder was assayed against FRMPD2_2, Q68DX3 (assay: holdup assay). Settings: plain residues with an end cap or a label only (N-terminal biotin on a linker: ado-ado).
Sequence of FRMPD2_2, Q68DX3 (Q68DX3 944-1038): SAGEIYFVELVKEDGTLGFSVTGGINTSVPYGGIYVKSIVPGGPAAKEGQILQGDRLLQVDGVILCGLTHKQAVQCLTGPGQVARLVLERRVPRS
Parameters: key: below the threshold = too weak to quantify, mostly under pKd 3.1 to 4

Row | Binder | pKd
52 | B1 | below the threshold
53 | B2 | below the threshold
54 | B3 | below the threshold

The binders below were run against T8, RAPGEF6, Q8TEU7 (assay: holdup assay). Settings: plain residues with an end cap or a label only (N-terminal biotin on a linker: ado-ado).
Parameters: key: below the threshold = too weak to quantify, mostly under pKd 3.1 to 4

Row | Binder | pKd
55 | B1 | 3.48
56 | B2 | below the threshold
57 | B3 | below the threshold

Each binder was assayed against LDB3, O75112 (assay: holdup assay). Settings: plain residues with an end cap or a label only (N-terminal biotin on a linker: ado-ado).
Sequence of LDB3, O75112 (O75112 1-94): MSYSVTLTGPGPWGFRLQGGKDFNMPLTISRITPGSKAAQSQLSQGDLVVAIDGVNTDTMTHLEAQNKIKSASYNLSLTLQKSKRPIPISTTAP
Parameters: key: below the threshold = too weak to quantify, mostly under pKd 3.1 to 4

Row | Binder | pKd
58 | B1 | below the threshold
59 | B2 | below the threshold
60 | B3 | below the threshold

These binders were tested against T9, LNX2_3, Q8N448 (assay: holdup assay). Settings: plain residues with an end cap or a label only (N-terminal biotin on a linker: ado-ado).
Parameters: key: below the threshold = too weak to quantify, mostly under pKd 3.1 to 4

Row | Binder | pKd
61 | B1 | below the threshold
62 | B2 | below the threshold
63 | B3 | below the threshold

These binders were tested against DLG2_3, Q15700 (assay: holdup assay). Settings: plain residues with an end cap or a label only (N-terminal biotin on a linker: ado-ado).
Parameters: key: below the threshold = too weak to quantify, mostly under pKd 3.1 to 4

Row | Binder | pKd
64 | B1 | 3.98
65 | B2 | below the threshold
66 | B3 | below the threshold

Each binder was assayed against MAGI2_4, Q86UL8 (assay: holdup assay). Settings: plain residues with an end cap or a label only (N-terminal biotin on a linker: ado-ado).
Sequence of MAGI2_4, Q86UL8 (Q86UL8 772-865): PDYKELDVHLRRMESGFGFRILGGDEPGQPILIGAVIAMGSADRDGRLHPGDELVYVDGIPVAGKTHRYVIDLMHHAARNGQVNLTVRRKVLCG
Parameters: key: below the threshold = too weak to quantify, mostly under pKd 3.1 to 4

Row | Binder | pKd
67 | B1 | 4.34
68 | B2 | below the threshold
69 | B3 | below the threshold

Each binder was assayed against Inadl_2, Q8NI35 (assay: holdup assay). Settings: plain residues with an end cap or a label only (N-terminal biotin on a linker: ado-ado).
Sequence of Inadl_2, Q8NI35 (Q8NI35 238-335): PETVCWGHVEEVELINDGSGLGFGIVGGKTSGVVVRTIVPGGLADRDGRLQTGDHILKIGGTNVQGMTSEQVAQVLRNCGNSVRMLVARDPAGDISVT
Parameters: key: below the threshold = too weak to quantify, mostly under pKd 3.1 to 4

Row | Binder | pKd
70 | B1 | below the threshold
71 | B2 | below the threshold
72 | B3 | below the threshold

The binders below were run against PDLIM1, O00151 (assay: holdup assay). Settings: plain residues with an end cap or a label only (N-terminal biotin on a linker: ado-ado).
Sequence of PDLIM1, O00151 (O00151 1-87): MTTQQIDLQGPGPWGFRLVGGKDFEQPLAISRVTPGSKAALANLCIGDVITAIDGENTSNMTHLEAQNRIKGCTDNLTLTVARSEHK
Parameters: key: below the threshold = too weak to quantify, mostly under pKd 3.1 to 4

Row | Binder | pKd
73 | B1 | below the threshold
74 | B2 | below the threshold
75 | B3 | below the threshold

What follows are binders tested against T10, APBA1_1, Q02410 (assay: holdup assay). Settings: plain residues with an end cap or a label only (N-terminal biotin on a linker: ado-ado).
Parameters: key: below the threshold = too weak to quantify, mostly under pKd 3.1 to 4

Row | Binder | pKd
76 | B1 | below the threshold
77 | B2 | below the threshold
78 | B3 | below the threshold

The binders below were run against NHERF4_1, Q86UT5-2 (assay: holdup assay). Settings: plain residues with an end cap or a label only (N-terminal biotin on a linker: ado-ado).
Sequence of NHERF4_1, Q86UT5-2 (Q86UT5 other isoform, or with tags, fused parts or gaps): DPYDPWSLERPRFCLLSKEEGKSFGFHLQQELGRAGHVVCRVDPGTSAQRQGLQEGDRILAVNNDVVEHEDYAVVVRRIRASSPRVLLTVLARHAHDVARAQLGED
Parameters: key: below the threshold = too weak to quantify, mostly under pKd 3.1 to 4

Row | Binder | pKd
79 | B1 | below the threshold
80 | B2 | below the threshold
81 | B3 | below the threshold

Each binder was assayed against DLG4_1, P78352 (assay: holdup assay). Settings: plain residues with an end cap or a label only (N-terminal biotin on a linker: ado-ado).
Sequence of DLG4_1, P78352 (P78352 62-152): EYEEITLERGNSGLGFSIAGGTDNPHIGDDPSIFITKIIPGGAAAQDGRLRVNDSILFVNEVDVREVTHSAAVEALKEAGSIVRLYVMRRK
Parameters: key: below the threshold = too weak to quantify, mostly under pKd 3.1 to 4

Row | Binder | pKd
82 | B1 | 3.65
83 | B2 | below the threshold
84 | B3 | below the threshold
